The nanobody polyreactivity screen of Harvey et al. (2022)

Test: yeast display, Sf9 membrane polyspecificity reagent, FACS + sequencing; frameworks hold sequencing errors
Outline: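 Nanobodies came from a synthetic yeast display library in Saccharomyces cerevisiae BJ5465, induced with galactose for 36–48 hours and stained for 1 hour at 4 °C with 10% biotinylated, detergent-solubilized Sf9 membrane reagent. Cells were enriched on streptavidin microbeads and then FACS-sorted, with low and high (top ~1%) gates set on anti-HA fluorescence for expression and streptavidin fluorescence for reagent binding. Each polyreactivity label reflects the gate a clone came from. Genes were amplified by colony PCR, sequenced by MiSeq 2 × 250 and filtered by CDR length.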

| Sequence | polyreactivity (PSR sort gate) |
| --- | --- |
| QVQLVESGGGLDQAGGSLRLSCAASGRIFYYYPMGWYRQAPGKERELVAGIDSGDSTNYADSVKGRFTITRDNAKNTVYLQINSLKPEDTAVYYCAALHYGGYFSYYPYYYWGQGTQATVSS | low polyreactivity |
| QVQLVESGGGLDQAGGSLRLSCAASGRISGYYDMVWYRQAPGKERELVATITSDGGTNYADSVKGRFTISRDNAKNTVYLQMNSLKPEDTAVYDCAAYGWYTKWHFAYGYWGQGTQVTVSS | low polyreactivity |
| QVQLVESGGGLDQAGGSLRLSCAASGRISIRNAMGWYRQAPGKETELVAAISRSGGSTYYADSLKGRFTISRDNAKNTVYLQMNSLKPEDTAVYYCAARGYSTYPMDYWGQGTQVTVSS | high polyreactivity |
| QVQLVESGGGLDQAGGSLRLSCAASGRTFANAMGWYRQAPGKERELVAGITSGGGRTYYADSVKGRFTMSRDNAKNTVYLQMNSLKPEDTAVYYCNRATPPGRLKSDSWGQGTQVTVSS | high polyreactivity |
| QVQLVESGGGLDQAGGSLRLSCAASGRTFAVYAMGWYIQAPGKERELVASIRLSGTRTYYADSVKGRFTISRDHAKNTVYFQMNSLKPEDTAVYYCAAKGTYSRGTFNGYRYDYWGQGTQVTVSS | high polyreactivity |
| QVQLVESGGGLDQAGGSLRLSCAASGRTFGRYAMGWYRKAPGTERELVAAISWSGGSTYYADSVKGRFTISRDNAKNTVYLQMNSLKPEDTAVYYCAAYEHVYEYDYWGQGTQVTVSS | low polyreactivity |
| QVQLVESGGGLDQAGGSLRLSCAASGRTFKYYAMGWYRQAPGKERELVAAITRSGSTYYADSVKGRFTISRDNAKNTVYLQMNSLKPEDTAVYYGAADVTLYYRGRRYYYWGQGTQVTVSS | high polyreactivity |
| QVQLVESGGGLDQAGGSLRLSCAASGRTFLVYAMGWYRQAPGKERELVAAISRSGGSTYYADSVMRRFTISRDNAKNNVYLQMNSLIPEDTAVYYCAAKKTGRYYWGQGTEVTVSS | high polyreactivity |
| QVQLVESGGGLDQAGGSLRLSCAASGRTFRYYAMGWDRQAPGKERELVAAITGSGGSTYYADSVKGRFTISRDIAKNTVYLQMNSLKPEDTAVYYCATRWALRWRGGYWGQGTQVTVSS | high polyreactivity |
| QVQLVESGGGLDQAGGSLRLSCAASGRTLYRYAMGWYRQSPGKERELVAAIRSGGRTNYADSVKGRFTISRDNAKNTVYLQLNSLKPEDTAVYYCAARTLRYPSTYDYWGQGTQVTVSS | high polyreactivity |
| QVQLVESGGGLDQAGGSLRLSCAASGSIFGRNAMRWYRQAPGKERELVAAITGYTYYADSVKGRFTISRDNAKNTVYLQMNSLKPEDTAVYYINADHDVGWTYDTEYNYWGQGTQVTVSS | low polyreactivity |
| QVQLVESGGGLDQAGGSLRLSCAASGSIFGTNTMGWYRQSPGKERELVAAIRLSDSSTYYADSVKGRFTISRDNAKNTVYLQMNSLKPEDTAVYYCAVDYRAYHYYRYDYWGQGTQVTVSS | low polyreactivity |
| QVQLVESGGGLDQAGGSLRLSCAASGSIFLDYAMGWYRQAPGKERELVAAISLSSSRTYYADSLKGRFTISRDNAKNTVYLQLNSLKPEDTAVYNCNKLSIWSYYFGPYGYDYWGQGTQVTVSS | low polyreactivity |
| QVQLVESGGGLDQAGGSLRLSCAASGSIFRRYTMGWYRQAPGKERELVAAISRVGNTNYADSVKGRITISRDNAKNTVYFQMNSLKPEDTEVYYCAARAIGYRYTPGLNYWGQGTQVTVSS | high polyreactivity |
| QVQLVESGGGLDQAGGSLRLSCAASGSIFSVYAMGWYRQARGKERELVAAITSGTSTYADSVKGRFTISRDNAKNSVYLQMNSLKPEDTAVYYCAAESGSPGYYYWGQGTQVTVSS | low polyreactivity |
| QVQLVESGGGLDQAGGSLRLSCAASGSIFVGYAMGWYRQAPGKERELVASINYSGGTTDYADSVKGRFTISRDNAKNTVYLQMHSLKPEDTAVYYCAKTAVDCSFTKGVDYDYWGQGTQVTVSS | low polyreactivity |
| QVQLVESGGGLDQAGGSLRLSCAASGSIFVPYAMGGYRQAPGKERELVAAITSGDSTYYADSVKGRFTISRDNAKNNVYLQMNSLKPEDTAVYYCAADIRPTLSLLSLFDYEYWGQGTQVTVSS | low polyreactivity |
| QVQLVESGGGLDQAGGSLRLSCAASGSISGYNAMGWYRQAPGKERELVASIRYTGARSYYADSGKGRFTISRDNAKNTVYLQMNSLKPEDTAVYYCAADSAYDVTSYGYWGQGTQVTVSS | low polyreactivity |
| QVQLVESGGGLDQAGGSLRLSCAASGSTFGVYAMGWYRQAPGKERELVAAISSSTGSTYYADSVKGRFTISRDNAKNTVYLQMNSLKPEDTAVYYCAAEYDGPYYSFYPEQRYYWGQGTQVTVSS | low polyreactivity |
| QVQLVESGGGLDQAGGSLRLSCAASGSTFHYYAMGWYRQPHGKERELVAVISSGGSTYYADSVKGRFTISRDNAKNTVYLQMNSLKPEDTAVYYCAAEYFLLAGKGYNGGDYYVYDYWGQGTQVTVSS | low polyreactivity |
| QVQLVESGGGLDQAGGSLRLSCAASGSTFLHYAMGWYRQAPRKERELVAAISFSGVRTYYADSVKGRFTISRDNAKNTVYLQMNSLKPEDTAVFYCAADGHHADYDYWGQGTQVTVSS | low polyreactivity |
| QVQLVESGGGLDQAGGSLRLSCAASGSTFPSNAMGWYRQAPGNESEFVAAITFRGGRTYYADSVKGRFTISRDNAKNTVYLQMNSLKREDTAVYYCAAERWWYTVRGYGYWGQGTQVTVSS | high polyreactivity |

| Sequence | polyreactivity (PSR sort gate) |
| --- | --- |
| QVQLVESGGGLDQAGGSLRLSCAASGSTFRYYTMGWYRQAHGKERELVAAISSRGGSTYYADSVKGRFTISRDNAKKTVYLQMNSLKPEDSAVYYCCALYPSWAQRGRDYWGQGTQVSVSS | high polyreactivity |
| QVQLVESGGGLDQAGGSLRLSCAASGSTFSQYVMGWYRQAPGKERELVAANSSGGSTYYADSVKGRFTISRDNAKNTVYLQMNSLKPEDTAVYYCAAKYDGSYVGLYWYSMNYWGQGTQVTVSS | low polyreactivity |
| QVQLVESGGGLDQAGGSLRLSCAASGSTFTKNVMGWYRQAPGKERELVAAISSGGRTNYADSVKGRFTISRDNAKNTVYLQMNSLKPEDTAVYFCAADVGYFKSDYWGQGTQVTVSS | low polyreactivity |
| QVQLVESGGGLDQAGGSLRLSCAASGSTFVWNAMGWYRHAPGKERELVAAISSSGGSTYYADSVKGRFTISRDNAKNTVYLQMNSLKPEDTAVYYCAKGYYVRMDWGQGTQVTVSS | high polyreactivity |
| QVQLVESGGGLDQAGGSLRLSCAASGSTFVYNVMGWYRQAPGKERELVAAITSGVRTYYADSEKGRFTISRDNAKNTGYLQMNSLKPEDTAVYYCATGWRNAKYYYWGQGTQVNVSS | high polyreactivity |
| QVQLVESGGGLDQAGGSLRLSCAASGTTFVPNDMGWYRQAPGKERELVAAITDSGGSTYYADSVWGRFTISRDNAKNTVYLQMNILKPEDTAVYYCADVQHYVTHMDYWGQGNQVTVSS | low polyreactivity |
| QVQLVESGGGLDQAGGSLRLSCAASVLIFNIYARGWYRQAPGKERELVATIRYSGGSTNYADSVKGRFTISRDNAKNTVYLQMNSLKPEDTAVYYCNAGYYPSGYDYWGQGTQVTVSS | low polyreactivity |
| QVQLVESGGGLDQAGGSLRLSCAAYGITFGYYAMGWYRQAPGKERELVASITTRGGSTSYADSVKGRFTISRDNAKNTVYLQMNSLKPEDTAVYYCAARWRQRKSVRYGQQGYDYWGQGTQVTVSS | high polyreactivity |
| QVQLVESGGGLDQAGGSLRLSCADSGSIFESYAMGWYRQAPGKERELVAAITKRGGSTYYADSVKGRFTISRDNAKNTVYLQMNSLKPEDTAVYYCNARWPGIGPIYDYWGQGTQVTVSS | low polyreactivity |
| QVQLVESGGGLDQAGGSLRLSCDASGRIFGYYAMGWYRQAPGKERELVAAITWTGGGTYYADSVKGRFTISRDNAKNTVYIQMNSLKPEDTAVYYCAADPDSGQFPFDYWGQGTQVTVSS | low polyreactivity |
| QVQLVESGGGLDQAGGSLRLSCPASGSTFLNNAMGRYRQAPGKERELVATITSGGITNYADSVKGRFTISRDNAKNCVYLQMNSLKPEDTAVYYCNADTWGFTYYYWGQGTQVTVSS | low polyreactivity |
| QVQLVESGGGLDQAGGSLRLSCVASGFTFRVYAMGWYRQAPGKERELVAAISRVGSTNYADSVKGRFTISRDNAKNTVYLQMNSLKPEDTAVYYCNAVLRHTWVSRGYGSWGQGTQVTVSS | high polyreactivity |
| QVQLVESGGGLDQAGGSLRLSSAASGFTFERYPMGWDRQAPGKEREMVAAIDWRGVNTYYADSVKGRFTISRHTAKTTVYLQMNSLKPEDTAVYYCNARAYGRYYWGQGTQVTVSS | high polyreactivity |
| QVQLVESGGGLDQAGGSLRLSSAASGSIFRGNAMGWYRQAPGKERELVAGINRAGSTKYADSVKGRFTISRDNAKNTVYLQMNSLIPEDTAVYYCAAVRYERGLWSDYWGQGTQVTVSS | high polyreactivity |
| QVQLVESGGGLDQAGGSLRLTCAASGSIFAKYAMGWYRQAPGKERELVAAITSSGDSTNYADSVKGRFTISRDNAKNTVYVQMNSLKPEDTAVYYCAADHHYGYVYYAFWGYDYWGQGTQVTVSS | low polyreactivity |
| QVQLVESGGGLDQAGGSLRLTCAASGSTFEVYAMGWYRQAPGKERELVAVNNVSDGSTYYADSVKGRFTISRDNAKNTVYLQMNSLKPEDTAVYYCAAYLYNRPYQLTGYYDGYGYWGQGTQVTVSS | low polyreactivity |
| QVQLVESGGGLDQAGGSLSLICAASASIFSYYAMGWYRQAAGKERELVATISSGGSTNYADSVKGRFTISRDNAKNTVYLQMNSLKPEDTAVYYCAATIGHNGFDYWGQGTQVTVSS | low polyreactivity |
| QVQLVESGGGLDQAGGSLSLSCAASGLIINSNTMGWYRQAPGKERELVAVINWRGGRTYYADSVKGRFTISRDNAKNTVDLQMNSLKPEDTAVYYCAAYLHGARYGYWGQGTQVTVSS | high polyreactivity |
| QVQLVESGGGLDQAGRSLRLSCAASGRTDVTYAMGWYRQAPGKEREFVAAISASGGTTYYADSVKGRFTISRDNSKNTVYLQMNSRKPEDTAVYYCAADIRGTVYLSSFWMEYWGQGTQVNVSS | low polyreactivity |
| QVQLVESGGGLDQAGVSLRLSCAASGSTFRIYAMGWYRPAPGKERELVAAISRSGGSTYYADSVKGRFTISRDNAKNTVYLQMNSLKPEDTAVYYCAALSVASRWFGRGTGGYWGQGTQVTVSS | high polyreactivity |
| QVQLVESGGGLDQAGVSLRLSSAASGSTFVRNAMGCYRQAPGKEREWVAAINIGGSTYYADSVKGRFTISRDNAKNTVYLQMNSLKPEDTAVYYFAARIKYRYDWGQGTQVTVSS | low polyreactivity |
